In paper doi:10.1101/2022.04.25.489347:

Experiments:
[1] = biological target: AtFKBP43 (1-164) (Arabidopsis thaliana) (UniProt F4J9Q6); experiment: pull-down
[2] = biological target: AtFKBP43 (1-136) (Arabidopsis thaliana) (UniProt F4J9Q6); experiment: pull-down
Chain of AtFKBP43 (1-136) (Arabidopsis thaliana) (F4J9Q6 1-136): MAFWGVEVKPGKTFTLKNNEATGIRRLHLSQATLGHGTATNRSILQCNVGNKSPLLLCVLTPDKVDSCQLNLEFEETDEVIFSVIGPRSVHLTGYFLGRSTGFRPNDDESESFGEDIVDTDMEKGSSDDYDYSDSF

Chain of AtFKBP43 (1-164) (Arabidopsis thaliana) (F4J9Q6 1-164): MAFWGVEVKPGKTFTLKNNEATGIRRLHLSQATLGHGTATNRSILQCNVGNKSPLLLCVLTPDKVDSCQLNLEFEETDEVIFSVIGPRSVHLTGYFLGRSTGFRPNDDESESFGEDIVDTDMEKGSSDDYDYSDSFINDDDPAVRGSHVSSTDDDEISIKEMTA

NaCl concentration up to which the complex was stable [1] [M] | NaCl concentration up to which the complex was stable [2] [M] | Substance
0.3 | 0.3 | H2A/H2B dimer (from UniProt P06897 1-130; P02281 1-126) (complex)
1 | 1 | H3/H4 tetramer (from UniProt P84233 1-136; P62799 1-103) (complex)
